Common to all, as to assay: purified protein, by the assay type
Common to all, as to set-up: GSSCys oxidoreductase assay, steady-state kinetics, coupled NADPH consumption at 340 nm, pH 8.0, 25 °C
Holding throughout (conditions): pH 8.0; 25.0 °C

Substrate in data set [1]: N[C@@H](CCC(=O)N[C@@H](CSSC[C@H](N)C(=O)O)C(=O)NCC(=O)O)C(=O)O
As to the method:
(§1) Steady-state kinetics of wild-type and mutant ScGrx7 and HsGrx5^C122S in the GSSCys and [compound left out] assays were determined spectrophotometrically by monitoring the consumption of NADPH at 340 nm and 25 °C using a thermostated Jasco V-650 UV/vis spectrophotometer[11],[19],[25]. Fresh stock solutions of NADPH, GSH, GR, and GSSCys or [compound left out] were prepared in assay buffer containing 0.1 M Tris/HCl, 1 mM EDTA, pH 8.0 before each experiment. Both assays were performed with 0.1 mM NADPH and 1 U/ml ScGR. The following final protein concentrations were used for Y110F/H/A (5–150 nM), D144A/K (10 nM), E147A/K (10 nM), R153A/E (25–50 nM), ScGrx7^WP (20 nM), ScGrx7^loop (up to 1.4 µM), ScGrx7^WP+loop (up 2.6 µM), HsGrx5^C122S (up to 15 µM), HsGrx5^RR (up to 12 µM), HsGrx5^loop (up to 1.6 µM), and HsGrx5^RR+loop (up to 4.0 µM). For the GSSCys assays, GSH was varied between 50 µM and 1.5 mM at fixed GSSCys concentrations (25, 50, 100, and 150 µM). NADPH, GSH, and GR were mixed in assay buffer before Grx was added and a baseline was recorded for 30 s. All GSSCys assays were started by the addition of GSSCys. The absorbance of a reference cuvette containing all components but no Grx was measured in parallel and subtracted from the obtained Grx activity. For the [compound left out] assays, GSH was varied between 100 µM and 2.0 mM at fixed concentrations of [compound left out] (0.18, 0.37, 0.55, and 0.74 mM). NADPH, GSH, and [compound left out] were preincubated in assay buffer for 2 min before GR was added and a baseline was recorded for 30 s. All [compound left out] assays were started by the addition of enzyme. Kinetic data were analyzed in Excel and SigmaPlot 13 by nonlinear and linear regression according to Michaelis–Menten, Lineweaver–Burk, Eadie–Hofstee, and Hanes theory[11],[19],[25]. 13 Supplementary Figure 7 Supplementary Figure 7 | GSSCys assay steady-state kinetics of ScGrx7 wild-type enzyme and D144X mutants. (a) Michaelis-Menten plots of the GSH-dependent reaction velocity at different initial concentrations of GSSCys. […]

Substrate in data set [2]: N[C@@H](CCC(=O)N[C@@H](CS)C(=O)NCC(=O)O)C(=O)O
As to the method: as §1

Substrate in data set [3]: N[C@@H](CCC(=O)N[C@@H](CS)C(=O)NCC(=O)O)C(=O)O
Here is the method: as §1
The source holds these as a separate data set.

Substrate in data set [4]: N[C@@H](CCC(=O)N[C@@H](CSSC[C@H](N)C(=O)O)C(=O)NCC(=O)O)C(=O)O
As to the method: as §1
This is another data set of the same source.

Substrate in data set [5]: N[C@@H](CCC(=O)N[C@@H](CSSC[C@H](N)C(=O)O)C(=O)NCC(=O)O)C(=O)O
Here is the method:
as §1
The source holds these as a separate data set.

B1: ScGrx7 (Saccharomyces cerevisiae S288C) (protein)
chain: SVNESITTHHPDSLVTFDNSGNAPGTHQSVHDTVNTQDKEAEEVDKNSGDAEFDAAAEYNKIMEQSPMIVFSKTGCPYSKKLKALLTNSYTFSPSYYVVELDRHEHTKELQDQIEKVTGRRTVPNVIIGGTSRGGYTEIAELHKNDELLDSFKKWSDGAFTVKANSQSESA
notes: E. coli XL1-Blue, pQE30; N-terminal MRGS(H)6 tag
As a reminder, the Km is the substrate concentration at which the rate is half of its maximum. As a reminder, the kcat is the maximal rate divided by the concentration of active sites. The term kcat/Km denotes the turnover number divided by the Michaelis constant. Regarding B1, the Km in data set [1] was 320 ± 91 µM; in data set [2], 291 ± 17.6 µM; in data set [3], 744 µM; in data set [4], 257 µM; in data set [5], 266 ± 129 µM. In addition, the kcat was determined as 239 ± 54 s⁻¹ in data set [1], 75.2 ± 1.6 s⁻¹ in data set [2], 206 s⁻¹ in data set [3] and 163 ± 54.8 s⁻¹ in data set [5]. Further, the kcat/Km came out at 757000 M⁻¹ s⁻¹ in data set [1], 258000 M⁻¹ s⁻¹ in data set [2] and 612000 M⁻¹ s⁻¹ in data set [5].

The values are drawn from article PMC7138851, “Quantitative assessment of the determinant structural differences between redox-active and inactive glutaredoxins” (Nature Communications, 2020).
